Our source for the binding result and activity values is patent US20060084798, “cDNAs and proteins involved in hypoxia, circadian and orphan signal transduction pathways, and methods of use” (published 2006).

Like-named read-outs stand apart in the source and are kept apart here.

For data set [1], the target named is T1, MOP1 (HIF1alpha)/ARNT heterodimer (Homo sapiens, UniProt Q16665;P27540 Q16665:1-826,P27540:1-789). Put plainly: EMSA. A general note: Mobility shift assays separate free from complexed probe on a gel.
The target of another data set is MOP1 (HIF1alpha)/AHR (UniProt Q16665;P35869 Q16665:1-826,P35869:1-848). Put plainly: EMSA; no complex with any bHLH-PAS family response element.
Data set [2] has as its target T2, MOP1 (HIF1alpha) (Homo sapiens, UniProt Q16665 SEQ:1-826). Put plainly: EMSA; HIF1alpha alone.
The target in data set [3] is ARNT/HIF1alpha (transfected) (Homo sapiens, UniProt P27540;Q16665 P27540:1-789,Q16665:1-826). The data set can be described thus: cell_activity; COS-1 luciferase. As for the experimental part:
(§1) Cell Culture and Transient Transfection. Transient transfections of COS-1 cells were performed by the Lipofectamine protocol (GIBCO) as described in Example 1. To mimic hypoxia, 100 μM of cobalt chloride was included in the cell growth media and incubated at 37° C. until harvest. To monitor the transcriptional activity of the MOP3-MOP4 or MOP3-CLOCK heterodimers, a synthetic reporter was constructed by annealing phosphorylated oligonucleotides OL1116 and OL1117 and cloning them into the BglII site in the reporter plasmid pGL3p (Promega). To measure the transcriptional activity of the MOP3-HIF1α or MOP3-HIF2α heterodimers, a synthetic reporter was constructed by annealing phosphorylated oligonucleotides OL1155 and OL1156 and then cloning them as above. Luciferase levels were reported in relation to β-galactosidase activity as described in Example 1.
(§2) To determine if MOP3 formed a transcriptionally active complex with either HIF1α or HIF2α in vivo, we constructed a synthetic reporter using six copies of the M13 element described above. […] Like ARNT, upon exposure of these transfected cells to cobalt chloride to simulate cellular hypoxia, MOP3 interacted and drove transcription in complexes with both HIF1α and with HIF2α.

Data set [4] deals with ARNT/HIF2alpha (transfected) (Homo sapiens, UniProt P27540;Q99814 P27540:1-789,Q99814:1-870). Put plainly: cell_activity; COS-1 luciferase. As for the experimental part: as §1, §2
Data set [5] concerns the target T1, MOP1 (HIF1alpha)/ARNT heterodimer. The data set can be described thus: EMSA; oligo assignment by core; supershifted by antisera. The settings on record: label: 32P.
For data set [6], the target named is MOP2 (HIF2alpha)/ARNT heterodimer (Homo sapiens, UniProt Q99814;P27540 Q99814:1-870,P27540:1-789). Put plainly: EMSA; approximately equal to MOP1-ARNT; supershifted by antisera. The settings on record: label: 32P.
The target in data set [7] is T2, MOP1 (HIF1alpha). The data set can be described thus: EMSA; MOP1 alone. The settings on record: label: 32P.
Data set [8] has as its target MOP7 (HIF3alpha)/human ARNT heterodimer (Mus musculus, UniProt Q0VBL6;P27540 Q0VBL6:1-662,P27540:1-789). The data set can be described thus: EMSA; abolished by anti-ARNT. The settings on record: label: 32P. As for the experimental part: Gel-shift assay. To generate a double strand oligonucleotide probe containing the core HRE element, 50 ng of oligonucleotide OL414 was end-labeled with [γ-³²P]ATP and was annealed with 10 fold excess of cold complementary oligonucleotide OL415. […] For expression of the bHLH-PAS proteins, mMOP7 (PL1025) and hARNT (PL87) were synthesized in a reticulocyte lysate in the presence of [³⁵S]methionine. The amount of each protein synthesized was calculated by measuring radioactivity and estimated to be approximately 1 fmol in each 10 μl gel-shift reaction. Each gel-shift assay was performed with 100,000 cpm of oligonucleotide probe per 10 μl reaction. To confirm complex identity, 1 μl of anti-ARNT sera was used to supershift the DNA bound protein complex.
As a biochemical proof that MOP7 was a bona fide α-class HIF, we performed gel-shift and transient transfection analyses. Because HIF1α and HIF2α are known to pair with the β-class HIF subunit ARNT, we predicted that MOP7 would also pair with ARNT. Based upon sequence identity in their basic regions, we also predicted that a MOP7-ARNT would bind the HRE core sequence, TACGTG. […] First, the MOP7-ARNT-HRE complex was abolished by anti-ARNT IgGs but not by preimmune antibodies. Second, the complex was blocked by an excess of HRE containing oligonucleotide but not by oligonucleotides with a single mutation within the core HRE sequence. […]

The next data set addresses ARNT (Homo sapiens, UniProt P27540 P27540:1-789). The data set can be described thus: EMSA; ARNT alone. The settings on record: label: 32P.
Data set [9] concerns the target T1, MOP1 (HIF1alpha)/ARNT heterodimer. The data set can be described thus: EMSA; higher affinity than MOP1 or ARNT alone.

T1 sequence (Q16665 whole entry, chain 1 of 2): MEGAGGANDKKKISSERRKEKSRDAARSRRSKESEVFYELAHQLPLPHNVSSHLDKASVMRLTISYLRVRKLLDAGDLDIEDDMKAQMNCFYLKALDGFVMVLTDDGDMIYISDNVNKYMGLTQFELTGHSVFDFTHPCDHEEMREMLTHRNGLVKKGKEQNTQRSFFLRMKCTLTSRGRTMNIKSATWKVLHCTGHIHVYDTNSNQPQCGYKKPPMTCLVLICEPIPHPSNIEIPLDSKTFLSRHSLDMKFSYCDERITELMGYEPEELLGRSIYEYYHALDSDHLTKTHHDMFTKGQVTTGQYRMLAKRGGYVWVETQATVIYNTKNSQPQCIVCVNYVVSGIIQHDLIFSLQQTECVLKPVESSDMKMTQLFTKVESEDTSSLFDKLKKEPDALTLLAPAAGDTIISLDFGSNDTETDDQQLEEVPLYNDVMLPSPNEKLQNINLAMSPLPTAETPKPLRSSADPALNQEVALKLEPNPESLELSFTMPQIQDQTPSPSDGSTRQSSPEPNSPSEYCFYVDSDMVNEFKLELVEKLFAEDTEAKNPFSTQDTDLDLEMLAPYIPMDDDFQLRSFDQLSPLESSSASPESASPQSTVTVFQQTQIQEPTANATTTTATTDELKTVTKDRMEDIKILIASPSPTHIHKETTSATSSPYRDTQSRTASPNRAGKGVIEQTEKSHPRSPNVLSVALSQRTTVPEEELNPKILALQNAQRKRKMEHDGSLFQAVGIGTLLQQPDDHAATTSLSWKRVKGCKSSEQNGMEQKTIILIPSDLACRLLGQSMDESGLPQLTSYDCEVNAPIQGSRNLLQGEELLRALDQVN
T1 sequence (P27540 whole entry, chain 2 of 2): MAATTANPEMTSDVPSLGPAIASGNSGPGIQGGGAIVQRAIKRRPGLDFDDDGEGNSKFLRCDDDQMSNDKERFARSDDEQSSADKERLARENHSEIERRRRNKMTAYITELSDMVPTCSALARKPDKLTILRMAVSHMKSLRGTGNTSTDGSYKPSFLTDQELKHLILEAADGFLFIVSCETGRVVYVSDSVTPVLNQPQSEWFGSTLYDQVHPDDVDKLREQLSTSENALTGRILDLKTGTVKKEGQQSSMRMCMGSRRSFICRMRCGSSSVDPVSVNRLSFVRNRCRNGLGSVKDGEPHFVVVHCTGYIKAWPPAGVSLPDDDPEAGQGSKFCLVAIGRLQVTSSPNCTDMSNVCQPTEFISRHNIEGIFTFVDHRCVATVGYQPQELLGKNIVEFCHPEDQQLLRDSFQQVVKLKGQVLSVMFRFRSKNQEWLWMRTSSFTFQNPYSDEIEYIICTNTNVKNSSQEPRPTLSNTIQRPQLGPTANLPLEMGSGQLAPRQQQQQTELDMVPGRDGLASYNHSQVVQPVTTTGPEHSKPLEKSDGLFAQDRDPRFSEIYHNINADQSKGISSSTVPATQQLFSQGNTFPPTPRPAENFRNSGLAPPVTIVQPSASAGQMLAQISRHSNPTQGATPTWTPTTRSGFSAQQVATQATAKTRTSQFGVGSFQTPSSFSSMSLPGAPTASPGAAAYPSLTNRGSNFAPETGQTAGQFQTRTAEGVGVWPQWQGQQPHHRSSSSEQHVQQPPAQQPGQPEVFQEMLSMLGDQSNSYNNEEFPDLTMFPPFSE
MOP1 (HIF1alpha)/AHR, sequence (Q16665 whole entry, chain 1 of 2): as the sequence (Q16665 whole entry, chain 1 of 2) above
MOP1 (HIF1alpha)/AHR, sequence (P35869 whole entry, chain 2 of 2): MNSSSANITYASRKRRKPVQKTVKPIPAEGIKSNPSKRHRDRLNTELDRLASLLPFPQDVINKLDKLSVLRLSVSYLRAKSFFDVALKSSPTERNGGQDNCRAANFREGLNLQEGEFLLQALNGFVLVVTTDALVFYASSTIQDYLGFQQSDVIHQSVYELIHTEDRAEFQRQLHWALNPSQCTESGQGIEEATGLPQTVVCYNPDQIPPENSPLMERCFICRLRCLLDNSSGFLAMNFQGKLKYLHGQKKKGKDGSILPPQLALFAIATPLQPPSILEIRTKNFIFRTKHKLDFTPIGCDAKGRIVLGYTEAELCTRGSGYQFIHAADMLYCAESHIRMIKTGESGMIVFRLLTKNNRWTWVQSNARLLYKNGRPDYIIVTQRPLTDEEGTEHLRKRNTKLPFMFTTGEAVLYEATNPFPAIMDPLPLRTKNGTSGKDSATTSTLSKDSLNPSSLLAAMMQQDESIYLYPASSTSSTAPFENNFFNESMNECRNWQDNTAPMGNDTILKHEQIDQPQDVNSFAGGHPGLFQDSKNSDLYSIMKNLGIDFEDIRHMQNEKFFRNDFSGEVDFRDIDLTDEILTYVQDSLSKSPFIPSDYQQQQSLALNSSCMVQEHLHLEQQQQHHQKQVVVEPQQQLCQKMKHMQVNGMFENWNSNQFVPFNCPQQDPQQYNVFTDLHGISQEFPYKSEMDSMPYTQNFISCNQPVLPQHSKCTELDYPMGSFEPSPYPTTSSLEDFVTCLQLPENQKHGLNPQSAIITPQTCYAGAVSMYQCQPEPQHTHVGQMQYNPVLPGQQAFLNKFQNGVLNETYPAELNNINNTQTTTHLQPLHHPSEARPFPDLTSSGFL
T2 sequence (Q16665 whole entry): as the sequence (Q16665 whole entry, chain 1 of 2) above
ARNT, sequence (P27540 whole entry, one chain of several): as the sequence (P27540 whole entry, chain 2 of 2) above

B1: OL447/OL448 TTGCGTG (DRE) (dsDNA)
DNA 1: TCGAGCTGGGCAGGTTGCGTGGCAAGGC
DNA 2: TCGAGCCTTGCCACGCAACCTGCCCAGC
Consider B1, for which the binding result (in data set [1]; with MOP1 (HIF1alpha)/AHR) was “no binding” throughout.

B2: M13 element (dsDNA)
DNA 1: GCCCTACGTGACCC
DNA 2: GGGTCACGTAGGGC
As to B2, in the data set with MOP1 (HIF1alpha) [2], the binding result is “no binding”.

B3: M13 reporter insert OL1155 (reporter carries six M13 copies) (dsDNA)
DNA 1: GATCGGATACGTGACCATTGGTTACGTGTCCATTGGATACGTGACC
DNA 2: GGTCACGTATCCAATGGACACGTAACCAATGGTCACGTATCCGATC
Turning to B3, the activity was determined as 14.1 fold in data set [3] and 8.1 fold in data set [4].

B4: OL414/OL415 TACGTG (HRE) (dsDNA)
DNA 1: TCGAGCTGGGCAGGGTACGTGGCAAGGC
DNA 2: TCGAGCCTTGCCACGTACCCTGCCCAGC
In the case of B4, the binding result was “binds” in data set [5]; “no binding” in the data set with MOP1 (HIF1alpha)/AHR (label: 32P); “binds” in data set [6]; “no binding” in the data set with MOP1 (HIF1alpha) [7]; “binds” in data set [8]; “no binding” in the data set with ARNT.

B5: OL443/OL444 GTGCGTG (SAE) (dsDNA)
DNA 1: TCGAGCTGGGCAGGGTGCGTGGCAAGGC
DNA 2: TCGAGCCTTGCCACGCACCCTGCCCAGC
In the case of B5, the binding result (in data set [1]; in the data set with MOP1 (HIF1alpha)/AHR) was “no binding” throughout.

B6: OL445/OL446 CACGTG E-box (dsDNA)
DNA 1: TCGAGCTGGGCAGGTCACGTGGCAAGGC
DNA 2: TCGAGCCTTGCCACGTGACCTGCCCAGC
Take B6: the binding result with MOP1 (HIF1alpha)/AHR is “no binding”; in data set [9], “binds”.
